# From paper PMC7978432
# Legend:
# [1] = molecular target: SARS-CoV-2 RBD-5GS-1TD0 (SARS-CoV-2 | not stated) (UniProt P0DTC2); assay: SEC
# [2] = molecular target: SARS-CoV-2 RBD-5GS-1TD0 (SARS-CoV-2 | not stated) (UniProt P0DTC2); assay: SDS-PAGE
# [3] = molecular target: SARS-CoV-1 RBD-5GS-1TD0 (SARS-CoV-1 | not stated); assay: SDS-PAGE
substance,measurement,setting,value
SARS-CoV-2 RBD-5GS-1TD0 (from UniProt P0DTC2 330-532),stoichiometry N,[1],3
same,stoichiometry N,[2],3
SARS-CoV-1 RBD-5GS-1TD0,stoichiometry N,[3],3
